Assay [1] addresses full length mouse DLL4 on overexpressing CHO or HEK293 cells (mouse) (UniProt Q9JI71). The experiment in a line: FMAT competition, mDLL4 on cells, summary Table 21.
Assay [2] deals with full length human DLL4 on overexpressing CHO or HEK293 cells (human) (UniProt Q9NR61). Description: FMAT competition, hDLL4 on cells, summary Table 21.
Assay [3] deals with full length mouse DLL4 on overexpressing CHO or HEK293 cells (mouse) (UniProt Q9JI71). The experiment in a line: FMAT, hNotch1/Fc on CHO-mDLL4.
The target in assay [4] is recombinant human DLL4, C-terminally His-tagged extracellular domain (R&D Systems) (human) (UniProt Q9NR61). The experiment in a line: affinity on hDLL4, summary Table 21 (method not named there).
For assay [5] the target is unchanged. Description: binding ELISA, coated rhDLL4. In general terms: An ELISA detects its analyte on a solid surface through an enzyme-linked reagent.
Assay [6] has the same target. Description: competition ELISA, summary Table 21.
The target of assay [7] is full length human DLL4 on overexpressing CHO or HEK293 cells (human) (UniProt Q9NR61). Description: FMAT, hNotch1/Fc on CHO-hDLL4.
The target is the same in assay [8]. The experiment in a line: cell-based or functional assay.
The target in assay [9] is recombinant human DLL4, C-terminally His-tagged extracellular domain (R&D Systems) (human) (UniProt Q9NR61). Description: cell-based or functional assay.
Assay [10] shares this target. The experiment in a line: SPR, rhDLL4. On the technique in general: In SPR one partner is held on a chip, and binding of the other changes the refractive index at the surface.
Assay [11] has the same target. Description: hDLL4/hNotch1-Fc competition ELISA.
Assay [12] deals with full length human DLL4 on overexpressing CHO or HEK293 cells (human) (UniProt Q9NR61). The experiment in a line: FMAT, hNotch1/Fc on CHO-hDLL4. The source holds these as a separate data set.
Assay [13] addresses cynomolgus DLL4 on overexpressing cells (cynomolgus (SEQ ID NO: 418 is the rhesus entry, stated 100% identical)). Description: FACS on CHO-cDLL4.
The target in assay [14] is full length human DLL4 on overexpressing CHO or HEK293 cells (human) (UniProt Q9NR61). The experiment in a line: FACS on CHO-hDLL4.
The target in assay [15] is full length mouse DLL4 on overexpressing CHO or HEK293 cells (mouse) (UniProt Q9JI71). The experiment in a line: FMAT, hNotch1/Fc on CHO-mDLL4. This is another data set of the same source.
Assay [16] deals with recombinant human DLL4, C-terminally His-tagged extracellular domain (R&D Systems) (human) (UniProt Q9NR61). The experiment in a line: hDLL4/hNotch1-Fc competition ELISA. The source holds these as a separate data set.
Assay [17] has as its target full length mouse DLL4 on overexpressing CHO or HEK293 cells (mouse) (UniProt Q9JI71). Description: FACS on CHO-mDLL4.
Assay [18] addresses recombinant human DLL4, C-terminally His-tagged extracellular domain (R&D Systems) (human) (UniProt Q9NR61). Description: hDLL4/hNotch1-Fc competition AlphaScreen. In general terms: In Alpha technology, singlet oxygen from a donor bead excites a nearby acceptor bead.
Assay [19] addresses recombinant mouse DLL4, C-terminally His-tagged extracellular domain (R&D Systems) (mouse) (UniProt Q9JI71). Description: binding ELISA, coated rmDLL4.
For assay [20], the target named is recombinant human DLL4, C-terminally His-tagged extracellular domain (R&D Systems) (human) (UniProt Q9NR61). Description: SPR Biacore T100, hDLL4 on chip.
The target in assay [21] is T1, full length mouse DLL4 on overexpressing CHO or HEK293 cells (mouse, UniProt Q9JI71 27-686).
T1 construct: whole, on cells; also called CHO-mDLL4; mDLL4
The experiment in a line: FACS on HEK293-mDLL4 cells. As for the experimental part: In order to determine the cynomologus cross-reactivity of the VHHs, a FACS binding experiment is performed. Cynomolgus DII4 expressing HEK293 cells (transient or stable transfection) are used for a titration binding experiment of the VHHs. After a 30 minutes incubation on ice, all samples are washed and detection is performed by applying anti-c-myc˜Alexa647 (Santa Cruz Biotechnology, Santa Cruz, Calif., USA). Human and mouse DII4 overexpressing HEK293 cells are taken as reference. The mean MCF value is determined on the FACS Array and used for calculation of the EC₅₀ value (see FIG. 9).

For assay [22], the target named is T2, full length human DLL4 on overexpressing CHO or HEK293 cells (human, UniProt Q9NR61 27-685).
T2 construct: also called CHO-hDLL4; HEK293-hDII4
Description: FMAT, hNotch1/Fc on CHO-hDLL4, periplasmic extract. The source says: (§1) All calculations are based on the FL1 total signal which comprises the average of the fluorescence per well times the number of counts per well.

Assay [23] addresses T1, full length mouse DLL4 on …. The experiment in a line: FMAT, hNotch1/Fc on CHO-mDLL4, periplasmic extract.
Description: as §1

These results are taken from patent publication US20110195494A1 (Boehringer Ingelheim, published 2011).

Values joined by “and” are separate entries in the source; they are usually repeats but may differ in a detail not shown here. Equal values may be shown once.

In general, IC50 refers to the concentration needed to halve the response being measured. In general, Kd refers to the constant that tells how readily two partners part at equilibrium. The term EC50 denotes the concentration giving half of the maximal effect. The term EC50 (read off the curve) denotes the concentration that produces a half-maximal response. As usually defined, the koff is the rate constant with which the complex falls apart. One may read the kon as the rate constant with which the complex forms.

Sequence of recombinant human DLL4, C-terminally His-tagged extracellular domain (R&D Systems) (human) (Q9NR61 25-522): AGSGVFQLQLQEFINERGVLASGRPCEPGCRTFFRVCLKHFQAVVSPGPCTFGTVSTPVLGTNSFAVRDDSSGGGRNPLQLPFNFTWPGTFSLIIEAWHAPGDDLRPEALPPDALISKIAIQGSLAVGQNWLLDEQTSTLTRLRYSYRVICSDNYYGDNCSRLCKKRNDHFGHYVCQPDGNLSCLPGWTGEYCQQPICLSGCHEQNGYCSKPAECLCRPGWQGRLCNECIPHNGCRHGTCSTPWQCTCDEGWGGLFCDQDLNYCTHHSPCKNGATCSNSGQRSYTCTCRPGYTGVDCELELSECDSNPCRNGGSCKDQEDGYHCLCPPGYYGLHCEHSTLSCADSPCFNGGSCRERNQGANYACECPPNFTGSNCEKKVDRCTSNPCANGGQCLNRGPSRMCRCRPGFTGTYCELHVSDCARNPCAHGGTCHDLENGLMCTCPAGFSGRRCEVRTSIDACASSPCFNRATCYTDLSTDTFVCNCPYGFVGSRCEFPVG
Sequence of full length human DLL4 on overexpressing CHO or HEK293 cells (human) (Q9NR61 27-685 limits assumed): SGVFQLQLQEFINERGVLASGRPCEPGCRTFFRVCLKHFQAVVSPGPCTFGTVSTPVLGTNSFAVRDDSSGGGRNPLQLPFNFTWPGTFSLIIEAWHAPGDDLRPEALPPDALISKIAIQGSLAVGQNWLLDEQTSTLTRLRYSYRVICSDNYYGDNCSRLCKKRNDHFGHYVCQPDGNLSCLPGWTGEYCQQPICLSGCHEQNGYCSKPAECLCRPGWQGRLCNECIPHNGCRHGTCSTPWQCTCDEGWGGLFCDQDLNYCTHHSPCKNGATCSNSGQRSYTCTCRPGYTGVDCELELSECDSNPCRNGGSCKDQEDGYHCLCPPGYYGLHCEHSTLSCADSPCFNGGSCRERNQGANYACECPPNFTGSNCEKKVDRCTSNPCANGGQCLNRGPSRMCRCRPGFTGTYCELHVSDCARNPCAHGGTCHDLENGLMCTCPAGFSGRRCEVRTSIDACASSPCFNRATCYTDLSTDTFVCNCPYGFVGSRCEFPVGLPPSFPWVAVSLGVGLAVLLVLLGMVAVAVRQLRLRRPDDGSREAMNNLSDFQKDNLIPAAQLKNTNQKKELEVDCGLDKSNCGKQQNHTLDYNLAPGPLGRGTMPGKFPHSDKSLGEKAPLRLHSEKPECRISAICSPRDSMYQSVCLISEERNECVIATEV
Sequence of full length mouse DLL4 on overexpressing CHO or HEK293 cells (mouse) (Q9JI71 27-686): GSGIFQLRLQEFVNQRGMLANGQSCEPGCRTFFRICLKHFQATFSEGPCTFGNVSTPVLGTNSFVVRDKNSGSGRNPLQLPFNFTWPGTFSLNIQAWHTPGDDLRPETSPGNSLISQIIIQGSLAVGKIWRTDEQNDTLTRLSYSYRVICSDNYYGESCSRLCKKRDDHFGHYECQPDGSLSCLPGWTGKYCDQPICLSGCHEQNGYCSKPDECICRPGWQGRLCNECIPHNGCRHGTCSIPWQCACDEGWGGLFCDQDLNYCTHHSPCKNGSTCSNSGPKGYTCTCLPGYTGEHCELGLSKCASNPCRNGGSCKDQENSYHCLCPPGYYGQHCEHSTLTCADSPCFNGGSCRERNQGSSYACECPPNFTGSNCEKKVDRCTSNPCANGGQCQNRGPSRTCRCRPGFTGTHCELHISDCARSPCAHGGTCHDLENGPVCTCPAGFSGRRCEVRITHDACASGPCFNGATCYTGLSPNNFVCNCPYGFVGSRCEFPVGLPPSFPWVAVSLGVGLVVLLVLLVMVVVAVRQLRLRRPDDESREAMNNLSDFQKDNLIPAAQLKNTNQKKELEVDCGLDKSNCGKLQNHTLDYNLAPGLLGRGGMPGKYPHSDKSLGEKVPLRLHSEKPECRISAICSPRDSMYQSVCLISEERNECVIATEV
Sequence of recombinant mouse DLL4, C-terminally His-tagged extracellular domain (R&D Systems) (mouse) (Q9JI71 27-532): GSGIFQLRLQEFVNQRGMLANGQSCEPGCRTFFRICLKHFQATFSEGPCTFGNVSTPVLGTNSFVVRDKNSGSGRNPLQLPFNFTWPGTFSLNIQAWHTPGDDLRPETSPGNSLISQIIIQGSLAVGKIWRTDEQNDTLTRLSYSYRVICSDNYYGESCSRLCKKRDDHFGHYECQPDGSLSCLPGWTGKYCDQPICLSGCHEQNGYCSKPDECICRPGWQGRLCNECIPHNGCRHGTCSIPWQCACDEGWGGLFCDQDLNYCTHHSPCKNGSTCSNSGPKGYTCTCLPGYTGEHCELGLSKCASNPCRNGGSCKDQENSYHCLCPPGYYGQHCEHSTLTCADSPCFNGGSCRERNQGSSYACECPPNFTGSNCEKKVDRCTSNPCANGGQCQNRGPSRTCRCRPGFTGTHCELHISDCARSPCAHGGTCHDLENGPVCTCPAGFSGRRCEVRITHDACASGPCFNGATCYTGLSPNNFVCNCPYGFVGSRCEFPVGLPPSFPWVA
T1 sequence (Q9JI71 27-686): as the sequence (Q9JI71 27-686) above
T2 sequence (Q9NR61 27-685 limits assumed): as the sequence (Q9NR61 27-685 limits assumed) above
Sequence of cynomolgus DLL4 on overexpressing cells (cynomolgus (SEQ ID NO: 418 is the rhesus entry, stated 100% identical)) (Q9NR61 other isoform, or with tags, fused parts or gaps limits assumed): as the sequence (Q9NR61 27-685 limits assumed) above, with I12V, T52S, N359S, L413R, N434S counted along it

B1: anti-DLL4 Fab fragment (of the Genentech anti-DLL4 mAb of US 2008/0014196) (Fab)
heavy: EVQLVESGGGLVQPGGSLRLSCAASGFTFTDNWISWVRQAPGKGLEWVGYISPNSGFTYYADSVKGRFTISADTSKNTAYLQMNSLRAEDTAVYYCARDNFGGYFDYWGQGTLVTVSS
light: DIQMTQSPSSLSASVGDRVTITCRASQDVSTAVAWYQQKPGKAPKLLIYSASFLYSGVPSRFSGSGSGTDFTLTISSLQPEDFATTYYCQQSYTGTVTFGQGTKVEIK
As to B1, the concentration for half-maximal inhibition (IC50) in assay [1] is 3 nM and 1.6 nM; in assay [2] it was 5.5 nM and 3.4 nM; in assay [3], 2.3 nM; in assay [6], 1.5 nM and 1.2 nM; in assay [7], 5.5 nM and 3.4 nM; in assay [11], 1.5 nM and 1.2 nM. Further, the 50% inhibitory concentration (IC50) in assay [12] is 5.4 nM; in [15], 3 nM and 1.6 nM; in [16], 0.7 nM; in assay [18], 0.3 nM. The Kd in [4], in assay [10] and in assay [20] was 1.5 nM throughout. Also, the EC50 came out at 3 nM in assay [5]; 2.5 nM in assay [13]; 5.6 nM in [14]; 2.1 nM in [17]; 3 nM in assay [19]. Moreover, the EC50 (read off the curve) is 800 pM in [5] and 900 pM in [19]. In assay [8], this molecule gave an IC50, DLL4/Notch1 reporter assay of 133 nM. Besides, the IC50 (nM) (experiment 1), DLL4 proliferation assay (HUVEC) in assay [9] was 4.9 nM. Further, the IC50 (nM) (experiment 2), DLL4 proliferation assay (HUVEC) in [9] amounted to 5.6 nM. Moreover, the koff in assay [10] and in assay [20] was 0.00034 s⁻¹ throughout. Also, the on-rate constant (kon) in [10] and in assay [20] was 230000 M⁻¹ s⁻¹ in each case.

B2: DLLBII101G08 (VHH)
VHH: EVQLVESGGGLVQAGGSLRLSCAASGRTFSSYAMAWFRQAPGKEREFVAAIRWSGGTAYYADSVQGRFTISRDNAKNTVYLQMNSLKPEDTAVYYCANRAADTRLGPYEYDYWGQGTQVTVSS
notes: also called DLLBII101G8; 101G8; not shown: C-terminal c-myc tag and His6 tag
As for B2, in assay [21], the “EC50 (read off the curve)” value is 37 to 40 nM. Also, the “FMAT hDLL4 % inhibition” value in assay [22] amounted to 91%. The “FMAT mDLL4 % inhibition” value in assay [23] is 92%.
